# ± gives the standard deviation of the averaged measurements.
# Test system: Saccharomyces cerevisiae
# Assay: protein stability index of tFT-peptide fusion (C-terminal peptide) (PSI (0-1 scale)); higher = more stable (slower turnover)
# Settings: genetic background: wild type; temperature: 30 C
# 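Note: PSI is a weighted mean of sequencing reads over stability bins, variants kept only with over 10 reads, mCherry proximal and sfGFP distal, peptide attached via GGGS linker.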
row,Sequence,protein stability index
1,PNPHDPQLPPPH,0.709 ± 0.05
2,PNPHGRPSIPAL,0.65 ± 0.039
3,PNPIHHPTSTTA,0.672 ± 0.053
4,PNQTRPHPHHNL,0.69 ± 0.02
5,PNRSPPLPRPLM,0.693 ± 0.0074
6,PPAICSFLSPPF,0.655 ± 0.017
7,PPALSLPAPLLP,0.6592 ± 0.0039
8,PPAPPARFPSPP,0.711 ± 0.068
9,PPAPPPLPPPTH,0.633 ± 0.049
10,PPAPPPLSPSPI,0.832 ± 0.04
11,PPAPRPRSPSPL,0.719 ± 0.0085
12,PPAPRVSPPPPP,0.712 ± 0.073
13,PPAPSSLTASPF,0.71 ± 0.08
14,PPARLPLPPPSP,0.753 ± 0.061
15,PPARPLFPLPRL,0.754 ± 0.077
16,PPASSPRRPTPP,0.675 ± 0.011
17,PPDGRPPPLRLM,0.679 ± 0.014
18,PPDSPSPLPPPP,0.681 ± 0.054
19,PPFLSPLRPPSL,0.781 ± 0.09
20,PPFPARPRPHPV,0.6623 ± 0.0056
21,PPFPLACPPLLF,0.657 ± 0.11
22,PPFPPPPPPPLS,0.714 ± 0.05
23,PPFRPRPPPPSA,0.812 ± 0.17

row,Sequence,protein stability index
1,PPFRRPPPDPQP,0.7343 ± 0.0059
2,PPFSTPFLPPSS,0.727 ± 0.072
3,PPFTLRPQVPTH,0.664 ± 0.0097
4,PPGQRGRRDRAA,0.647 ± 0.015
5,PPGSSPPPVLSL,0.703 ± 0.022
6,PPHGRKRRGKEP,0.776 ± 0.16
7,PPHHLPPGPPHP,0.72 ± 0.078
8,PPHLFLPSSMPF,0.693 ± 0.015
9,PPHPPPPSPALL,0.74 ± 0.01
10,PPHPPPRLPPPP,0.724 ± 0.043
11,PPHRRTPQRRCP,0.701 ± 0.013
12,PPIPPSAPLCPP,0.688 ± 0.014
13,PPIPYIVPPSYT,0.657 ± 0.015
14,PPITKKITRNTA,0.676 ± 0.014
15,PPIWYAKHRPAP,0.6904 ± 0.0069
16,PPLCPPLQPPLI,0.639 ± 0.02
17,PPLFRPPASAPR,0.715 ± 0.018
18,PPLLPLPPRPLL,0.728 ± 0.044
19,PPLLPPPPQLLL,0.679 ± 0.028
20,PPLLPPPVPPVP,0.727 ± 0.07
21,PPLMLPSTPSSS,0.704 ± 0.095
22,PPLPAPGPIFLP,0.652 ± 0.037
23,PPLPGHPCLWPT,0.649 ± 0.057

row,Sequence,protein stability index
1,PPLPLPGPDHHL,0.731 ± 0.087
2,PPLPLPPSRSPA,0.686 ± 0.026
3,PPLPLPSPRPPP,0.619 ± 0.0092
4,PPLPPAPPPPPH,0.697 ± 0.056
5,PPLPPLCRPLPP,0.685 ± 0.1
6,PPLPPLPSPSPP,0.721 ± 0.092
7,PPLPPPLRPPPS,0.685 ± 0.026
8,PPLPPPTSPPRP,0.69 ± 0.038
9,PPLPPSPSVSPR,0.746 ± 0.021
10,PPLPSPLCPQPP,0.714 ± 0.032
11,PPLQRFSYRPGR,0.754 ± 0.069
12,PPLSLPLCLSPL,0.6838 ± 0.0035
13,PPPAPDRATIRR,0.673 ± 0.068
14,PPPAPFSPLPPP,0.7184 ± 0.002
15,PPPAPPPPPPLP,0.7026 ± 0.0022
16,PPPAPPPPPPPP,0.693 ± 0.068
17,PPPAPPPPPTFL,0.688 ± 0.019
18,PPPAPPSPLLSR,0.685 ± 0.1
19,PPPFPSPLPPPP,0.678 ± 0.0097
20,PPPHPLPRPLPT,0.853 ± 0.051
21,PPPHPPPRLPSP,0.604 ± 0.078
22,PPPHPTPPLTSP,0.702 ± 0.058
23,PPPHSPVPPSQS,0.68 ± 0.022

row,Sequence,protein stability index
1,PPPLAPPSVPCS,0.604 ± 0.053
2,PPPLFLSPFPPR,0.727 ± 0.015
3,PPPLHPTTLPQP,0.733 ± 0.017
4,PPPLLPAPGSTI,0.662 ± 0.0079
5,PPPLLPASFHLP,0.629 ± 0.0082
6,PPPLPPPAPPPP,0.658 ± 0.025
7,PPPLPPPLPPPL,0.705 ± 0.05
8,PPPLPRHLRAPP,0.689 ± 0.018
9,PPPLPVFPRPPP,0.682 ± 0.012
10,PPPLSLLPAPPA,0.6953 ± 0.0021
11,PPPLSLSCPFRP,0.712 ± 0.052
12,PPPLSPSTSDHP,0.652 ± 0.019
13,PPPNPPPALPPL,0.664 ± 0.047
14,PPPPAAFFPRSP,0.827 ± 0.11
15,PPPPAPPVPLPL,0.693 ± 0.016
16,PPPPASSFSPPR,0.7366 ± 0.0054
17,PPPPAVPPSPPP,0.645 ± 0.012
18,PPPPFSPAHLPH,0.6993 ± 0.0042
19,PPPPHYPHHTAS,0.738 ± 0.029
20,PPPPLSAPPFSS,0.697 ± 0.051
21,PPPPLYPQPPPT,0.705 ± 0.025
22,PPPPPFLPPTPP,0.622 ± 0.041
23,PPPPPLPLPLPS,0.728 ± 0.066

row,Sequence,protein stability index
1,PPPPPLPPPSPF,0.734 ± 0.06
2,PPPPPPLPSLPR,0.678 ± 0.089
3,PPPPPPPAPPLP,0.648 ± 0.044
4,PPPPPPPHSPPS,0.664 ± 0.035
5,PPPPPPPLPPFT,0.681 ± 0.015
6,PPPPPPPPALSS,0.7163 ± 0.0034
7,PPPPPPPPHLLP,0.658 ± 0.027
8,PPPPPPPPPSSP,0.701 ± 0.057
9,PPPPPPPRALNL,0.687 ± 0.038
10,PPPPPPPTSRPP,0.644 ± 0.03
11,PPPPPPTPAPPP,0.711 ± 0.044
12,PPPPPQSRASSP,0.738 ± 0.022
13,PPPPPRPFLPPP,0.654 ± 0.058
14,PPPPPRPLPPLP,0.695 ± 0.043
15,PPPPPSPAPSLR,0.723 ± 0.052
16,PPPPPSSPPASP,0.653 ± 0.03
17,PPPPPSSPPPPA,0.639 ± 0.099
18,PPPPPTPHTPLL,0.672 ± 0.031
19,PPPPPTPPHQPR,0.79 ± 0.022
20,PPPPPTPSTRTS,0.667 ± 0.015
21,PPPPPVSSPLVT,0.657 ± 0.048
22,PPPPRATLPRPP,0.681 ± 0.044
23,PPPPRPSPPSLP,0.676 ± 0.0058

row,Sequence,protein stability index
1,PPPPSCPHSAPL,0.637 ± 0.008
2,PPPPSHPSPPPP,0.654 ± 0.021
3,PPPPSLPTPRPP,0.662 ± 0.012
4,PPPPSPPPILPP,0.64 ± 0.01
5,PPPPSRPPSPGP,0.6691 ± 0.00067
6,PPPPSVCPRFPI,0.785 ± 0.12
7,PPPPTPLPPPDP,0.68 ± 0.035
8,PPPPTPRYRAPL,0.671 ± 0.057
9,PPPPVLPPPLPP,0.7 ± 0.012
10,PPPPVPRPRLPI,0.648 ± 0.099
11,PPPPYPLPASCL,0.653 ± 0.058
12,PPPPYPSTRHSP,0.6564 ± 0.0021
13,PPPQPPPSPPPP,0.67 ± 0.097
14,PPPQTRPPTPTP,0.741 ± 0.081
15,PPPRARPHAPPL,0.653 ± 0.017
16,PPPRLNPLPPAC,0.731 ± 0.066
17,PPPRLPSRPPPP,0.716 ± 0.032
18,PPPRLRSPHGLF,0.718 ± 0.08
19,PPPRPPLPPPLP,0.692 ± 0.032
20,PPPRPPPPPPVP,0.707 ± 0.041
21,PPPRPRLSRLLH,0.6114 ± 0.0012
22,PPPRSLPPISPV,0.623 ± 0.02
23,PPPRTFSSSFHV,0.6366 ± 0.0043

row,Sequence,protein stability index
1,PPPSHLHLPSPA,0.53 ± 0.0095
2,PPPSPPAQSLRS,0.759 ± 0.079
3,PPPSPPSGALTP,0.763 ± 0.053
4,PPPSPSPPPSSP,0.698 ± 0.039
5,PPPSPSTPKTTL,0.6943 ± 0.0068
6,PPPSRPSHPPPA,0.628 ± 0.015
7,PPPSSPPSPVIR,0.694 ± 0.056
8,PPPTLPPPPPAL,0.711 ± 0.033
9,PPPTLPSPPSPP,0.712 ± 0.011
10,PPPTLYPPPFPP,0.659 ± 0.027
11,PPPTRAPPPKPG,0.621 ± 0.028
12,PPPVPPRFAVRP,0.6678 ± 0.0015
13,PPPWPSLCLPPS,0.706 ± 0.048
14,PPPYAPLPPTWP,0.726 ± 0.023
15,PPPYPFPHLSPL,0.713 ± 0.029
16,PPPYPSYPPRPN,0.724 ± 0.032
17,PPQHRNPAVRRH,0.667 ± 0.023
18,PPRAPLPRPPQP,0.656 ± 0.011
19,PPRAPSPLPPPL,0.704 ± 0.027
20,PPRLDLPFPLSR,0.747 ± 0.08
21,PPRPDRSSLPPF,0.712 ± 0.037
22,PPRPLTPAPSDT,0.682 ± 0.014

# From the supplement of paper PMC10724198
